This note sets out measurements from patent publication US20190119389A1 (POTENZA THERAPEUTICS, published 2019).

In assay [1] the target is T1, Cyno NRP-1 His (cynomolgus monkey, UniProt O14786 22-856 (human entry), limits assumed).
T1 construct: Recombinant monomeric protein; also called cynomolgus monkey NRP-1-His; cNRP-1; not shown: His tag
T1 chain: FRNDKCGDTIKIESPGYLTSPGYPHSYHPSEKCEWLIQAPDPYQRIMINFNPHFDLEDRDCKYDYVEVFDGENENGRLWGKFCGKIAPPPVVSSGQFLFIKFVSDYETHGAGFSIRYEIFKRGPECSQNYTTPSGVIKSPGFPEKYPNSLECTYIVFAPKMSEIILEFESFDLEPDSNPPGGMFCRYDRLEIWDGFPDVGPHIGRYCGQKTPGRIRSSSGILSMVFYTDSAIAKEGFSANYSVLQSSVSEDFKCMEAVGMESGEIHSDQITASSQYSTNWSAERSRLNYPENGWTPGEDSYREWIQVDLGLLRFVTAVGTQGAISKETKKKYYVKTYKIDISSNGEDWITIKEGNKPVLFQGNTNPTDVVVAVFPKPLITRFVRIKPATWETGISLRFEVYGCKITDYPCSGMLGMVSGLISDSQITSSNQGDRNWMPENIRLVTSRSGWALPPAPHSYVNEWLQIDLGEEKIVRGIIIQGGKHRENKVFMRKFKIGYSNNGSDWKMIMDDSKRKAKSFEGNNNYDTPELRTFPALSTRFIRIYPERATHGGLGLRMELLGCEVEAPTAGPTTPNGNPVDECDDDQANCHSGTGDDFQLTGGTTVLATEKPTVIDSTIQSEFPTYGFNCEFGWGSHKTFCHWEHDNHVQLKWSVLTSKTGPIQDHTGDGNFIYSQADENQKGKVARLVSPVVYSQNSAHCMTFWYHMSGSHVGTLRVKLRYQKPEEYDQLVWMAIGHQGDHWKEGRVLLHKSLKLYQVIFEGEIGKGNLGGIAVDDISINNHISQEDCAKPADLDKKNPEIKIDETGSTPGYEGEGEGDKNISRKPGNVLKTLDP
Nature of the assay: BLI ForteBio, IgG1 N297A on AHQ sensor, 100 nM monomeric antigen, 1:1 fit. For orientation: In BLI a coated tip is dipped into the sample, and binding shifts an interference pattern.

Assay [2] deals with T2, Mouse NRP-1 His (mouse, UniProt P97333 22-856).
T2 construct: Recombinant monomeric protein; also called mNRP-1; not shown: His tag
T2 sequence (P97333 22-856 limits assumed): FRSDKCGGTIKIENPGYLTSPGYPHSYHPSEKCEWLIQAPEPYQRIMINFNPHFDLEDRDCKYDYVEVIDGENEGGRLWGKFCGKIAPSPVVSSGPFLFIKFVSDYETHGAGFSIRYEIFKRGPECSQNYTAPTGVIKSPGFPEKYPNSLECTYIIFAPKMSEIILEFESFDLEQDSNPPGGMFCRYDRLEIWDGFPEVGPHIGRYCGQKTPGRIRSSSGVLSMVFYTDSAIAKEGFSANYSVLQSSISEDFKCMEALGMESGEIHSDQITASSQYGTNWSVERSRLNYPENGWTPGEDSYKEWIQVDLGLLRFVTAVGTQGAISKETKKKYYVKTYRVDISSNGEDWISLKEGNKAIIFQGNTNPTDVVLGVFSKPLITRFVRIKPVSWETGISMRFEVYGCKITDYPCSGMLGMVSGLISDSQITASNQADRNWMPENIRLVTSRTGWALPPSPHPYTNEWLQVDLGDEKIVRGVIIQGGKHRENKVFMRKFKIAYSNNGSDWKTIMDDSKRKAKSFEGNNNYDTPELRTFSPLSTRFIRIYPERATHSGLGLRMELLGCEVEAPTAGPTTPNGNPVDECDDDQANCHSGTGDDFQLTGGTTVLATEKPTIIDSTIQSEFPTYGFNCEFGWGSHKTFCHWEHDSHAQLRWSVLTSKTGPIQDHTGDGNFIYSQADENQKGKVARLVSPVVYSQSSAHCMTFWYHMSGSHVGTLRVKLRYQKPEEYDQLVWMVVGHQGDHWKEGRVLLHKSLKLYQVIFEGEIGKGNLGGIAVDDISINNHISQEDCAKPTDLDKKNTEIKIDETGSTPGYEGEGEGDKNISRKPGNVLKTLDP
Described as above.

For assay [3], the target named is T3, Human NRP-1 His (human, UniProt O14786 22-856).
T3 construct: Recombinant monomeric protein; Biotinylated in the MSD-SET assay; also called hNRP-1; not shown: His tag
The description is as above.
Target sequence in this assay (O14786 22-856 V179A limits assumed): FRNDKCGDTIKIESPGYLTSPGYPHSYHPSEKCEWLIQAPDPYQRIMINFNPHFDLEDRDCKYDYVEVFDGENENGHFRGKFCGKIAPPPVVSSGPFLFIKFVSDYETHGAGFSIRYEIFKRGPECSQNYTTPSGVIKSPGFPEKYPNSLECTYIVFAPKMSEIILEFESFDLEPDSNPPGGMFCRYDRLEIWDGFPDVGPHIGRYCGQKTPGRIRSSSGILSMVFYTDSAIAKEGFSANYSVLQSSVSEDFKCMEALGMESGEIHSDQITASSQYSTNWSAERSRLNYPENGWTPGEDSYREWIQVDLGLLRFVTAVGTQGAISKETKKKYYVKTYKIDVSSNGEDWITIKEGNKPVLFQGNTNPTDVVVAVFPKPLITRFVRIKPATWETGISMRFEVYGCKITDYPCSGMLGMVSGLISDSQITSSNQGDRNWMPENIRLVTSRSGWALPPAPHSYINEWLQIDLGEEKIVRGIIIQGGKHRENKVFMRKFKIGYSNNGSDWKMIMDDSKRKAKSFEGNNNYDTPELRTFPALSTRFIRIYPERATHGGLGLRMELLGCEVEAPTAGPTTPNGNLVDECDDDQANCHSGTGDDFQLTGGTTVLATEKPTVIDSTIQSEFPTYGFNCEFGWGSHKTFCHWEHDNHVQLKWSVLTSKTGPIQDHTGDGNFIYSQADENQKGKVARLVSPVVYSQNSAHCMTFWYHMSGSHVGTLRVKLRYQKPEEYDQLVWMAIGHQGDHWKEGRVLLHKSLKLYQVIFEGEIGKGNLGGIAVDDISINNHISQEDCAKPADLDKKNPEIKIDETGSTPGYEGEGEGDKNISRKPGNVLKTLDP

The target of assay [4] is T4, recombinant human NRP-1 (human, UniProt O14786 22-856, limits assumed).
T4 construct: also called biotinylated human NRP-1
Nature of the assay: blocking ELISA: human NRP-1 coated, VEGFA added with IgG1 antibody; competitor VEGFA. (In general: An ELISA detects its analyte on a solid surface through an enzyme-linked reagent.)
Target sequence in this assay (O14786 22-856 V179A limits assumed): as above

Assay [5] addresses T4, recombinant human NRP-1. As to the kind of experiment: blocking ELISA: SEMA3A coated, biotinylated human NRP-1 preincubated with IgG1 antibody; competitor SEMA3A.
Target sequence in this assay (O14786 22-856 V179A limits assumed): as above
In assay [6] the target is T3, Human NRP-1 His. Nature of the assay: MSD-SET solution equilibrium titration, Fab.
In assay [7] the target is T1, Cyno NRP-1 His. Nature of the assay: BLI Octet QKe, IgG4 S228P on AHC sensor, multi-concentration monomeric antigen, global 1:1 fit.
Assay [8] deals with T2, Mouse NRP-1 His. The assay is described as above.
The target in assay [9] is T3, Human NRP-1 His. The assay is described as above.
Target sequence in this assay (O14786 22-856 V179A limits assumed): as above
For assay [10], the target named is T4, recombinant human NRP-1. Nature of the assay: blocking ELISA, average of n=2: human NRP-1 coated, VEGFA added with IgG4 antibody; competitor VEGFA.
Assay [11] deals with T4, recombinant human NRP-1. As to the kind of experiment: blocking ELISA, average of n=2: SEMA3A coated, biotinylated human NRP-1 preincubated with IgG4 antibody; competitor SEMA3A.
Target sequence in this assay (O14786 22-856 V179A limits assumed): as above

Residue numbers refer to the chain shown, from its start. Names may count otherwise.

B1: MAB7 (antibody, V domains shown)
VH: EVQLVESGGGLVQPGGSLRLSCAASGFTFSSYWMEWVRQAPGKGLEWVARIKRDGSEKYYVDSVKGRFTISRDNAKNSLYLQMNSLRAEDTAVYYCARDQGYKTPTDFDLWGRGTLVTVSS
VL: DIQMTQSPSSLSASVGDRVTITCQASQDITNYLNWYQQKPGKAPKLLIYDASNLETGVPSRFSGSGSGTDFTFTISSLQPEDIATYYCQQSDVLPITFGGGTKVEIK
On to B1, for which the Kd (usually the free concentration of one partner at which half of the binding sites on the other are occupied at equilibrium, for simple one-to-one binding) with Cyno NRP-1 His [1] came out at 10.9 nM; with Mouse NRP-1 His [2], 14.7 nM; with Human NRP-1 His [3] it was 11.2 nM. Also, the IC50 (in general, the concentration at which inhibition is half-maximal) worked out at 6.9 nM with recombinant human NRP-1 [4] and 1.7 nM with recombinant human NRP-1 [5].

B2: MAB13 Fab (Fab, V domains shown)
VH: QVQLQQWGAGLLKPSETLSLTCAVYGGSFRGYYWEWIRQPPGKGLEWIGEISHSGSTNYNPSLKSRVTISVDTSKNQFSLKLSSVTAADTAVYYCARARPYREPYGMDVWGQGTTVTVSS
VL: DIQLTQSPSSVSASVGDRVTITCRASQDISSWLAWYQQKPGKAPKLLIYAASSLQSGVPSRFSGSGSGTDFTLTISSLQPEDFATYYCQQELAFPRTFGGGTKVEIK
As to B2, the Kd in the assay with Human NRP-1 His [6] was 0.54 nM.

B3: MAB10 (antibody, V domains shown)
VH: EVQLLESGGGLVQPGGSLRLSCAASGFTFSSVAMVWVRQAPGKGLEWVSAISGSGGATYYADSVKGRFTISRDNSKNTLYLQMNSLRAEDTAVYYCAKDPGYDSSRYYYSNYGMDVWGQGTTVTVSS
VL: DIQMTQSPSSLSASVGDRVTITCRASQSISSYLNWYQQKPGKAPKLLIYGASSLQSGVPSRFSGSGSGTDFTLTISSLQPEDFATYYCQQTYSLYTFGGGTKVEIK
For B3, the values for the dissociation constant (Kd) with Cyno NRP-1 His [1], in the assay with Mouse NRP-1 His [2] and with Human NRP-1 His [3] were 0.866 nM, 0.746 nM and 0.868 nM, respectively. The IC50 with recombinant human NRP-1 [4] came out at 6.7 nM; with recombinant human NRP-1 [5] it was 1.5 nM.

B4: MAB12 IgG4 S228P (antibody, V domains shown)
VH: B3 VH with K65E
VL: DIQMTQSPSSLSASVGDRVTITCRASQSISSYLNWYQQKPGKAPKLLIYGASSLQSGVPSRFSGSGSGTDFTLTISSLQPEDFATYYCQQTYSLYTFGGGTKVEIKR
As for B4, the results for the Kd with Cyno NRP-1 His [7], with Mouse NRP-1 His [8] and with Human NRP-1 His [9] were 0.19 nM, 0.16 nM and 0.12 nM, respectively. For the same molecule, the values for the IC50 with recombinant human NRP-1 [10] and with recombinant human NRP-1 [11] were 3.2 nM and 1.2 nM, respectively.

B5: MAB8 (antibody, V domains shown)
VH: B3 VH with S30A, V32Y, A50I, A57S
VL: B3 VL
On to B5, for which the figures for the Kd in the assay with Cyno NRP-1 His [1], with Mouse NRP-1 His [2] and in the assay with Human NRP-1 His [3] were 0.642 nM, 0.552 nM and 0.613 nM, respectively. The IC50 with recombinant human NRP-1 [4] is 7.3 nM; with recombinant human NRP-1 [5], 2 nM.

B6: MAB9 (antibody, V domains shown)
VH: B3 VH with S30K, V32Y, A50I
VL: B3 VL
Take B6: the equilibrium dissociation constant (Kd) in the assay with Cyno NRP-1 His [1] is 0.643 nM; with Mouse NRP-1 His [2] it was 0.566 nM; in the assay with Human NRP-1 His [3], 0.645 nM. For the same molecule, the concentration for half-maximal inhibition (IC50) with recombinant human NRP-1 [4] was 6.5 nM; with recombinant human NRP-1 [5], 1.8 nM.

B7: MAB11 (antibody, V domains shown)
VH: B3 VH with K65E, N84S
VL: B3 VL
B7: the figures for the Kd with Cyno NRP-1 His [1], with Mouse NRP-1 His [2] and in the assay with Human NRP-1 His [3] were 0.48 nM, 0.446 nM and 0.485 nM, respectively. Also, the IC50 in the assay with recombinant human NRP-1 [4] amounted to 5.9 nM; with recombinant human NRP-1 [5], 0.8 nM.

B8: MAB2 IgG4 S228P (antibody, V domains shown)
VH: QVQLVQSGAEVKKPGASVKVSCKASGYTFRSYYMLWVRQAPGQGLEWMGIIDPSDGSTSYAQKFQGRVTMTRDASTSTVYMELSSLRSEDTAVYYCARGARRITGYGMDVWGQGTTVIVSS
VL: DIQMTQSPSSVSASVGDRVTITCRASQGISSWLAWYQQKPGKAPKLLIYAASNLQSGVPSRFSGSGSGTDFTLTISSLQPEDFATYYCQQASVFPFTFGGGTKVEIKR
Turning to B8, the dissociation constant (Kd) was determined as 4.5 nM with Cyno NRP-1 His [7], 5.1 nM with Mouse NRP-1 His [8] and 2.4 nM with Human NRP-1 His [9]. Also, in the assay with recombinant human NRP-1 [11], the IC50 amounted to 2.6 nM.

B9: MAB3 IgG4 S228P (antibody, V domains shown)
VH: QAQLVQSGAEVKKPGASVKVSCKASGYTFSRYYMHWVRQAPGQGLEWMGIINPLGGSTLYAQKFQGRVTMTRDTSTSTVYMELSSLRSEDTAVYYCARDLGYYGSGMHAWGQGTLVTVSS
VL: B8 VL with S31R, N53S, S92N, V93L, F94L
For B9, the equilibrium dissociation constant (Kd) with Cyno NRP-1 His [7] amounted to 7.3 nM; with Mouse NRP-1 His [8], 4.4 nM; with Human NRP-1 His [9], 3.7 nM. For the same molecule, the IC50 with recombinant human NRP-1 [11] was found to be 2 nM.

B10: MAB1 Fab (Fab, V domains shown)
VH: B8 VH with E10G, A74T, S75P, I118T
VL: B2 VL with L4M, D28G, S53N, E91A, L92S, A93V, R96F
The molecule B10 gave a Kd with Human NRP-1 His [6] of 0.32 nM. That is a sub-nanomolar value.

B11: MAB4 IgG4 S228P (antibody, V domains shown)
VH: B9 VH with A2V, A109V
VL: B8 VL with S31R, N53S, S92N, V93L, F94L
On to B11, for which the values for the dissociation constant (Kd) with Cyno NRP-1 His [7], with Mouse NRP-1 His [8] and with Human NRP-1 His [9] were 4.5 nM, 2.3 nM and 3.1 nM, respectively. Moreover, in the assay with recombinant human NRP-1 [11], the half-maximal inhibitory concentration (IC50) was 2.3 nM.

B12: MAB5 IgG4 S228P (antibody, V domains shown)
VH: QVQLVQSGAEVKKPGASVKVSCKASGYTFTSYYMHWVRQAPGQGLEWMGIINPQGGDTSYAQKFQGRVTMTRDTSTSTVYMELSSLRSEDTAVYYCARDRGMYYASGFGPWGQGTLVTVSS
VL: EIVMTQSPGTLSLSPGERATLSCRASQSVSSSYLAWYQQKPGQAPRLLIYGASNRATGIPDRFSGSGSGTDFTLTISRLEPEDFAVYYCQQLSSFPITFGGGTKVEIKR
With B12, the Kd with Cyno NRP-1 His [7] was 12 nM; with Mouse NRP-1 His [8] it was 6.6 nM; in the assay with Human NRP-1 His [9], 8.4 nM. Also, the IC50 in the assay with recombinant human NRP-1 [11] was 2.9 nM.

B13: MAB6 (antibody, V domains shown)
VH: B12 VH with E10K, A40V, G109N
VL: EIVMTQSPGTLSLSPGERATLSCRASQSVSSSYLAWYQQKPGQAPRLLIYGASNRATGIPDRFSGSGSGTDFTLTISRLEPEDFAVYYCQQLSSFPITFGGGTKVEIK
Take B13: the Kd with Cyno NRP-1 His [1] came out at 5.54 nM; with Mouse NRP-1 His [2], 6.98 nM; with Human NRP-1 His [3] it was 4.72 nM. The results for the 50% inhibitory concentration (IC50) with recombinant human NRP-1 [4] and with recombinant human NRP-1 [5] were 7.4 nM and 1.8 nM, respectively.

B14: MAB15 Fab (Fab, V domains shown)
VH: QVQLQQWGAGLLKPSETLSLTCAVYGGSFVKYYWSWIRQPPGKGLEWIGDIWHSGMTNYNPSLKSRVTISVDTSKNQFSLKLSSVTAADTAVYYCARGPGYDSSGYSRRFDPWGQGTLVTVSS
VL: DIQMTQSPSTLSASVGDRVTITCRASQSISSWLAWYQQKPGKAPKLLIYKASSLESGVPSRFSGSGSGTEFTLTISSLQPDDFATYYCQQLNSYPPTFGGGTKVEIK
B14 gave a Kd in the assay with Human NRP-1 His [6] of 0.18 nM. That is a sub-nanomolar value.
